From paper PMC6144805

Target: RecQ-ΔΔC (E. coli RecQ variant lacking both the WH and HRDC domains) (Escherichia coli)

Sequence of E. coli ssDNA-binding protein (SSB) (P0AGE0 whole entry): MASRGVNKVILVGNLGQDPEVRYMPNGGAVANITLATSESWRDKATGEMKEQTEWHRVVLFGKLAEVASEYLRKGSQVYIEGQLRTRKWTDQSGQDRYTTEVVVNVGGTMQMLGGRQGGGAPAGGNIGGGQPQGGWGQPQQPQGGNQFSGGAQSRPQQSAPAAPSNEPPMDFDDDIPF

- average unwinding processivity of RecQ-ΔΔC with SSB: 2.5 kb
Substance: E. coli ssDNA-binding protein (SSB) (from UniProt P0AGE0 1-178) (natural protein)
